Source: patent publication US20170015742A1 (published 2017)

Biological target: recombinant human PDGF-BB (human, UniProt P01127 82-190)
Assay: cell-based or functional assay

Sequence of recombinant human PDGF-BB (P01127 82-190 limits assumed): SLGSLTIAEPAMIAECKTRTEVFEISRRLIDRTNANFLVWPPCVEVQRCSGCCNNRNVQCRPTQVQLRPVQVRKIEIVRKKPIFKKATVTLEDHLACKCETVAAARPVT

Binder	NIH-3T3 hPDGF-BB Potency IC50
CODV011 cross-over DVD-Ig (PR-1575521) (bispecific antibody, human IgG1, kappa, L234A L235A) heavy: EVQLVQSGSELKKPGASVKVSCKASGYTFTNYGMYWVRQAPGQGLEWMGWINTETGKPTYADDFKGRFVFSLDTSVSTAYLQISSLKAEDTAVYYCARTNYYYRSYIFYFDYWGQGTMVTVSSGGGGSGGGGSEFVLTQSPGTLSLSPGERATLSCERSSGDIGDSYVSWYQQKPGQAPRLVIYADDQRPSGIPDRFSGSGSGTDFTLTISRLEPEDFAVYYCQSYDINIDIVFGGGTKVEIKGGGSGASTKGPSVFPLAPSSKSTSGGTAALGCLVKDYFPEPVTVSWNSGALTSGVHTFPAVLQSSGLYSLSSVVTVPSSSLGTQTYICNVNHKPSNTKVDKKVEPKSCDKTHTCPPCPAPEAAGGPSVFLFPPKPKDTLMISRTPEVTCVVVDVSHEDPEVKFNWYVDGVEVHNAKTKPREEQYNSTYRVVSVLTVLHQDWLNGKEYKCKVSNKALPAPIEKTISKAKGQPREPQVYTLPPSREEMTKNQVSLTCLVKGFYPSDIAVEWESNGQPENNYKTTPPVLDSDGSFFLYSKLTVDKSRWQQGNVFSCSVMHEALHNAYTQKSLSLSPGK light: EVTLRESGPALVKPTQTLTLTCTFSGFSLSTYGMGVGWIRQPPGKALEWLANIWWDDDKYYNPSLKNRLTISKDTSKNQVVLTMTNMDPVDTATYYCARIESIGTTYSFDYWGQGTMVTVSSGGGGSGGGGSDTVLTQSPATLSLSPGERATLSCRASESVSTHMHWYQQKPGQAPRLLIYGASNLESGVPARFSGSGSGTDFTLTISSLEPEDFAVYFCQQSWNDPFTFGQGTKLEIKGGGSGRTVAAPSVFIFPPSDEQLKSGTASVVCLLNNFYPREAKVQWKVDNALQSGNSQESVTEQDSKDSTYSLSSTLTLSKADYEKHKVYACEVTHQGLSSPVTKSFNRGEC	0.043 nM
CODV009 cross-over DVD-Ig (PR-1571821) (bispecific antibody, human IgG1, kappa, L234A L235A) heavy: EVQLVQSGSELKKPGASVKVSCKASGYTFTNYGMYWVRQAPGQGLEWMGWINTETGKPTYADDFKGRFVFSLDTSVSTAYLQISSLKAEDTAVYYCARTNYYYRSYIFYFDYWGQGTMVTVSSGEVTLRESGPALVKPTQTLTLTCTFSGFSLSTYGMGVGWIRQPPGKALEWLANIWWDDDKYYNPSLKNRLTISKDTSKNQVVLTMTNMDPVDTATYYCARIESIGTTYSFDYWGQGTMVTVSSGGASTKGPSVFPLAPSSKSTSGGTAALGCLVKDYFPEPVTVSWNSGALTSGVHTFPAVLQSSGLYSLSSVVTVPSSSLGTQTYICNVNHKPSNTKVDKKVEPKSCDKTHTCPPCPAPEAAGGPSVFLFPPKPKDTLMISRTPEVTCVVVDVSHEDPEVKFNWYVDGVEVHNAKTKPREEQYNSTYRVVSVLTVLHQDWLNGKEYKCKVSNKALPAPIEKTISKAKGQPREPQVYTLPPSREEMTKNQVSLTCLVKGFYPSDIAVEWESNGQPENNYKTTPPVLDSDGSFFLYSKLTVDKSRWQQGNVFSCSVMHEALHNAYTQKSLSLSPGK light: EFVLTQSPGTLSLSPGERATLSCERSSGDIGDSYVSWYQQKPGQAPRLVIYADDQRPSGIPDRFSGSGSGTDFTLTISRLEPEDFAVYYCQSYDINIDIVFGGGTKVEIKGGGSGGGDTVLTQSPATLSLSPGERATLSCRASESVSTHMHWYQQKPGQAPRLLIYGASNLESGVPARFSGSGSGTDFTLTISSLEPEDFAVYFCQQSWNDPFTFGQGTKLEIKGGGSGRTVAAPSVFIFPPSDEQLKSGTASVVCLLNNFYPREAKVQWKVDNALQSGNSQESVTEQDSKDSTYSLSSTLTLSKADYEKHKVYACEVTHQGLSSPVTKSFNRGEC	> 5 nM

Results, then the binder that gave them:

NIH-3T3 hPDGF-BB Potency IC50	Binder
2.14 nM	CODV010 cross-over DVD-Ig (PR-1571823) (bispecific antibody, human IgG1, kappa, L234A L235A) heavy: EVTLRESGPALVKPTQTLTLTCTFSGFSLSTYGMGVGWIRQPPGKALEWLANIWWDDDKYYNPSLKNRLTISKDTSKNQVVLTMTNMDPVDTATYYCARIESIGTTYSFDYWGQGTMVTVSSGEVQLVQSGSELKKPGASVKVSCKASGYTFTNYGMYWVRQAPGQGLEWMGWINTETGKPTYADDFKGRFVFSLDTSVSTAYLQISSLKAEDTAVYYCARTNYYYRSYIFYFDYWGQGTMVTVSSGGASTKGPSVFPLAPSSKSTSGGTAALGCLVKDYFPEPVTVSWNSGALTSGVHTFPAVLQSSGLYSLSSVVTVPSSSLGTQTYICNVNHKPSNTKVDKKVEPKSCDKTHTCPPCPAPEAAGGPSVFLFPPKPKDTLMISRTPEVTCVVVDVSHEDPEVKFNWYVDGVEVHNAKTKPREEQYNSTYRVVSVLTVLHQDWLNGKEYKCKVSNKALPAPIEKTISKAKGQPREPQVYTLPPSREEMTKNQVSLTCLVKGFYPSDIAVEWESNGQPENNYKTTPPVLDSDGSFFLYSKLTVDKSRWQQGNVFSCSVMHEALHNAYTQKSLSLSPGK light: DTVLTQSPATLSLSPGERATLSCRASESVSTHMHWYQQKPGQAPRLLIYGASNLESGVPARFSGSGSGTDFTLTISSLEPEDFAVYFCQQSWNDPFTFGQGTKLEIKGGGSGGGEFVLTQSPGTLSLSPGERATLSCERSSGDIGDSYVSWYQQKPGQAPRLVIYADDQRPSGIPDRFSGSGSGTDFTLTISRLEPEDFAVYYCQSYDINIDIVFGGGTKVEIKGGGSGRTVAAPSVFIFPPSDEQLKSGTASVVCLLNNFYPREAKVQWKVDNALQSGNSQESVTEQDSKDSTYSLSSTLTLSKADYEKHKVYACEVTHQGLSSPVTKSFNRGEC
0.182 nM	CODV012 cross-over DVD-Ig (PR-1571824) (bispecific antibody, human IgG1, kappa, L234A L235A) heavy: EVQLVQSGSELKKPGASVKVSCKASGYTFTNYGMYWVRQAPGQGLEWMGWINTETGKPTYADDFKGRFVFSLDTSVSTAYLQISSLKAEDTAVYYCARTNYYYRSYIFYFDYWGQGTMVTVSSGGGGSGGGEFVLTQSPGTLSLSPGERATLSCERSSGDIGDSYVSWYQQKPGQAPRLVIYADDQRPSGIPDRFSGSGSGTDFTLTISRLEPEDFAVYYCQSYDINIDIVFGGGTKVEIKGGGSGASTKGPSVFPLAPSSKSTSGGTAALGCLVKDYFPEPVTVSWNSGALTSGVHTFPAVLQSSGLYSLSSVVTVPSSSLGTQTYICNVNHKPSNTKVDKKVEPKSCDKTHTCPPCPAPEAAGGPSVFLFPPKPKDTLMISRTPEVTCVVVDVSHEDPEVKFNWYVDGVEVHNAKTKPREEQYNSTYRVVSVLTVLHQDWLNGKEYKCKVSNKALPAPIEKTISKAKGQPREPQVYTLPPSREEMTKNQVSLTCLVKGFYPSDIAVEWESNGQPENNYKTTPPVLDSDGSFFLYSKLTVDKSRWQQGNVFSCSVMHEALHNAYTQKSLSLSPGK light: EVTLRESGPALVKPTQTLTLTCTFSGFSLSTYGMGVGWIRQPPGKALEWLANIWWDDDKYYNPSLKNRLTISKDTSKNQVVLTMTNMDPVDTATYYCARIESIGTTYSFDYWGQGTMVTVSSGGGGSGGGDTVLTQSPATLSLSPGERATLSCRASESVSTHMHWYQQKPGQAPRLLIYGASNLESGVPARFSGSGSGTDFTLTISSLEPEDFAVYFCQQSWNDPFTFGQGTKLEIKGGGSGRTVAAPSVFIFPPSDEQLKSGTASVVCLLNNFYPREAKVQWKVDNALQSGNSQESVTEQDSKDSTYSLSSTLTLSKADYEKHKVYACEVTHQGLSSPVTKSFNRGEC
0.11 nM	CODV013 cross-over DVD-Ig (PR-1571825) (bispecific antibody, human IgG1, kappa, L234A L235A) heavy: EVQLVQSGSELKKPGASVKVSCKASGYTFTNYGMYWVRQAPGQGLEWMGWINTETGKPTYADDFKGRFVFSLDTSVSTAYLQISSLKAEDTAVYYCARTNYYYRSYIFYFDYWGQGTMVTVSSGGGGSGGGEFVLTQSPGTLSLSPGERATLSCERSSGDIGDSYVSWYQQKPGQAPRLVIYADDQRPSGIPDRFSGSGSGTDFTLTISRLEPEDFAVYYCQSYDINIDIVFGGGTKVEIKGGSASTKGPSVFPLAPSSKSTSGGTAALGCLVKDYFPEPVTVSWNSGALTSGVHTFPAVLQSSGLYSLSSVVTVPSSSLGTQTYICNVNHKPSNTKVDKKVEPKSCDKTHTCPPCPAPEAAGGPSVFLFPPKPKDTLMISRTPEVTCVVVDVSHEDPEVKFNWYVDGVEVHNAKTKPREEQYNSTYRVVSVLTVLHQDWLNGKEYKCKVSNKALPAPIEKTISKAKGQPREPQVYTLPPSREEMTKNQVSLTCLVKGFYPSDIAVEWESNGQPENNYKTTPPVLDSDGSFFLYSKLTVDKSRWQQGNVFSCSVMHEALHNAYTQKSLSLSPGK light: EVTLRESGPALVKPTQTLTLTCTFSGFSLSTYGMGVGWIRQPPGKALEWLANIWWDDDKYYNPSLKNRLTISKDTSKNQVVLTMTNMDPVDTATYYCARIESIGTTYSFDYWGQGTMVTVSSGGGGSGGGDTVLTQSPATLSLSPGERATLSCRASESVSTHMHWYQQKPGQAPRLLIYGASNLESGVPARFSGSGSGTDFTLTISSLEPEDFAVYFCQQSWNDPFTFGQGTKLEIKGGGSGRTVAAPSVFIFPPSDEQLKSGTASVVCLLNNFYPREAKVQWKVDNALQSGNSQESVTEQDSKDSTYSLSSTLTLSKADYEKHKVYACEVTHQGLSSPVTKSFNRGEC
0.469 nM	CODV014 cross-over DVD-Ig (PR-1571826) (bispecific antibody, human IgG1, kappa, L234A L235A) heavy: EVQLVQSGSELKKPGASVKVSCKASGYTFTNYGMYWVRQAPGQGLEWMGWINTETGKPTYADDFKGRFVFSLDTSVSTAYLQISSLKAEDTAVYYCARTNYYYRSYIFYFDYWGQGTMVTVSSGGGGSEFVLTQSPGTLSLSPGERATLSCERSSGDIGDSYVSWYQQKPGQAPRLVIYADDQRPSGIPDRFSGSGSGTDFTLTISRLEPEDFAVYYCQSYDINIDIVFGGGTKVEIKGGSASTKGPSVFPLAPSSKSTSGGTAALGCLVKDYFPEPVTVSWNSGALTSGVHTFPAVLQSSGLYSLSSVVTVPSSSLGTQTYICNVNHKPSNTKVDKKVEPKSCDKTHTCPPCPAPEAAGGPSVFLFPPKPKDTLMISRTPEVTCVVVDVSHEDPEVKFNWYVDGVEVHNAKTKPREEQYNSTYRVVSVLTVLHQDWLNGKEYKCKVSNKALPAPIEKTISKAKGQPREPQVYTLPPSREEMTKNQVSLTCLVKGFYPSDIAVEWESNGQPENNYKTTPPVLDSDGSFFLYSKLTVDKSRWQQGNVFSCSVMHEALHNAYTQKSLSLSPGK light: EVTLRESGPALVKPTQTLTLTCTFSGFSLSTYGMGVGWIRQPPGKALEWLANIWWDDDKYYNPSLKNRLTISKDTSKNQVVLTMTNMDPVDTATYYCARIESIGTTYSFDYWGQGTMVTVSSGGGGSGGGDTVLTQSPATLSLSPGERATLSCRASESVSTHMHWYQQKPGQAPRLLIYGASNLESGVPARFSGSGSGTDFTLTISSLEPEDFAVYFCQQSWNDPFTFGQGTKLEIKGGGSGRTVAAPSVFIFPPSDEQLKSGTASVVCLLNNFYPREAKVQWKVDNALQSGNSQESVTEQDSKDSTYSLSSTLTLSKADYEKHKVYACEVTHQGLSSPVTKSFNRGEC
